Columns and labels:
Experiment in all cases: cell-based or functional assay
[1] = target: HA of influenza virus A/Hong Kong/1073/99 (H9) (Influenza A virus A/Hong Kong/1073/99 (H9))
[2] = target: HA of influenza virus A/Brisbane/10/2007 (H3) (Influenza A virus A/Brisbane/10/2007 (H3))
[3] = target: HA of influenza virus A/Hong Kong/1/68 (H3) (Influenza A virus A/Hong Kong/1/68 (H3)) (UniProt Q91MA7)
[4] = target: HA of influenza virus A/Johannesburg/33/94 (H3) (Influenza A virus A/Johannesburg/33/94 (H3))
[5] = target: HA of influenza virus A/Brisbane/59/2007 (H1) (Influenza A virus A/Brisbane/59/2007 (H1))
[6] = target: HA of influenza virus A/EW/MPH571/08 (H8) (Influenza A virus A/Eurasian Wigeon/MPH571/08 (H8))
[7] = target: HA of influenza virus A/EW/MPD411/07 (H6) (Influenza A virus A/Eurasian Wigeon/MPD411/07 (H6))
[8] = target: HA of influenza virus A/Chick/Germany/N/49 (H10) (Influenza A virus A/Chick/Germany/N/49 (H10)) (UniProt P12581)
Sequence of UniProt P12581 (P12581 17-561 limits assumed): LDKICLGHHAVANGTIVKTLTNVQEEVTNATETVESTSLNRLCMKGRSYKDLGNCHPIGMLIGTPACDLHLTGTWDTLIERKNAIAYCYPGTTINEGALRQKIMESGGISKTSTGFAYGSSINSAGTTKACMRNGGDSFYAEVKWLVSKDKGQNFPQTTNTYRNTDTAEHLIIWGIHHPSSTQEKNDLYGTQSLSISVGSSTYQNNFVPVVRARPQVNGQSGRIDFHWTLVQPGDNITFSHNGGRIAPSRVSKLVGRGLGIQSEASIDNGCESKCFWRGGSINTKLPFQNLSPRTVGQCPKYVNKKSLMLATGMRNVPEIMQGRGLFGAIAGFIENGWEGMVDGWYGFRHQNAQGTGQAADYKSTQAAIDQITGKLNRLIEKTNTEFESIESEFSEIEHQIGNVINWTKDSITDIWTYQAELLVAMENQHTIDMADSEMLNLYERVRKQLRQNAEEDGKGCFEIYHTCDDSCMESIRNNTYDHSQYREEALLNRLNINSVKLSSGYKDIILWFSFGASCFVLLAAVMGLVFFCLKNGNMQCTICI

[9] = target: HA of influenza virus A/Hiroshima/52/2005 (H3) (Influenza A virus A/Hiroshima/52/2005 (H3))
[10] = target: HA of influenza virus A/Panama/2007/1999 (H3) (Influenza A virus A/Panama/2007/1999 (H3))
[11] = target: HA of influenza virus A/Ck/HK/SSP176/09 (H9) (Influenza A virus A/Chick/HK/SSP176/09 (H9))
[12] = target: HA of influenza virus A/Env/MPU3156/05 (H2) (Influenza A virus A/Env/MPU3156/05 (H2))
[13] = target: HA of influenza virus A/EW/MPF461/07 (H5) (Influenza A virus A/Eurasian Wigeon/MPF461/07 (H5))
[14] = target: HA of influenza virus A/WF/MPA 892/06 (H4) (Influenza A virus A/WF/HK/MPA892/06 (H4))

## CR9114 (antibody)
[1]
  geomean IC50, virus neutralization assay (VNA): 4.4 µg/mL
[2]
  geomean IC50, virus neutralization assay (VNA): 5.6 µg/mL
[3]
  geomean IC50, virus neutralization assay (VNA): 19 µg/mL
[4]
  geomean IC50, virus neutralization assay (VNA): 21.9 µg/mL
[5]
  geomean IC50, virus neutralization assay (VNA): 2.6 µg/mL
[6]
  geomean IC50, virus neutralization assay (VNA): 8.8 µg/mL
[7]
  geomean IC50, virus neutralization assay (VNA): 10.5 µg/mL
[8]
  geomean IC50, virus neutralization assay (VNA): 15.7 µg/mL
[9]
  geomean IC50, virus neutralization assay (VNA): 12.5 µg/mL
[10]
  geomean IC50, virus neutralization assay (VNA): 39.9 µg/mL
[11]
  geomean IC50, virus neutralization assay (VNA): 6.3 µg/mL
[12]
  geomean IC50, virus neutralization assay (VNA): 8.8 µg/mL
[13]
  geomean IC50, virus neutralization assay (VNA): 10.5 µg/mL
[14]
  geomean IC50, virus neutralization assay (VNA): 0.8 µg/mL

— patent US20140120113A1
